Experiments:
Assay in all cases: cell_activity; CHO iGFFP reporter
LOX 3-4m.1158 = target: T1, LOX 3-4m.1158 (artificial (I-CreI derived))
T1 chain: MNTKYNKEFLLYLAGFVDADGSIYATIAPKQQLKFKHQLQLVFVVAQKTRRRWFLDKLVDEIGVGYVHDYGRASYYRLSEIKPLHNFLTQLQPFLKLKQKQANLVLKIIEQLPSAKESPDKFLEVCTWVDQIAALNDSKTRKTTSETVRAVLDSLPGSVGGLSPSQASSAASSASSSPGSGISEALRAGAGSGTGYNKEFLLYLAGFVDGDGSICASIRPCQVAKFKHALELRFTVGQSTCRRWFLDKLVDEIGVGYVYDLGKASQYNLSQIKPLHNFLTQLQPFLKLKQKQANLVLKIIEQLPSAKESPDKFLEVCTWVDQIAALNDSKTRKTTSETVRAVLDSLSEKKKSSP
Text: (§1) A CHO cell reporter system (see WO/2012/167192, FIG. 3) was used to determine whether the engineered meganucleases generated in these studies could recognize and cleave the modified LOX 3-4 recognition sequences in Table 87. To perform the assay, a pair of CHO cell reporter lines were produced, which carried a non-functional Green Fluorescent Protein (GFP) gene expression cassette integrated into the genome of the cell. The GFP gene in each cell line was interrupted by a pair of recognition sequences such that intracellular cleavage of either recognition sequence by a meganuclease would stimulate a homologous recombination event resulting in a functional GFP gene. In both cell lines, one of the recognition sequences was derived from the LOX 3-4 recognition sequence (i.e., those sequences disclosed in Table 87), and the second recognition sequence was specifically recognized by a control meganuclease called “CHO 23/24.” CHO reporter cells comprising a recognition sequence derived from the LOX 3-4 recognition sequence and the CHO 23/24 recognition sequence are referred to herein as “test cells.”
(§2) Novel engineered meganucleases derived from the LOX 3-4x.109 meganuclease were prepared by making amino acid substitutions at one or more positions in the first subunit and one or more positions in the second subunit. These engineered meganucleases were then evaluated for cleavage of the LOX 3-4 recognition sequence modified to have an ACGT center sequence (SEQ ID NO: 136) in the CHO reporter assay according to Example 1.

LOX 3-4m.1206 = target: T2, LOX 3-4m.1206 (artificial (I-CreI derived))
T2 chain: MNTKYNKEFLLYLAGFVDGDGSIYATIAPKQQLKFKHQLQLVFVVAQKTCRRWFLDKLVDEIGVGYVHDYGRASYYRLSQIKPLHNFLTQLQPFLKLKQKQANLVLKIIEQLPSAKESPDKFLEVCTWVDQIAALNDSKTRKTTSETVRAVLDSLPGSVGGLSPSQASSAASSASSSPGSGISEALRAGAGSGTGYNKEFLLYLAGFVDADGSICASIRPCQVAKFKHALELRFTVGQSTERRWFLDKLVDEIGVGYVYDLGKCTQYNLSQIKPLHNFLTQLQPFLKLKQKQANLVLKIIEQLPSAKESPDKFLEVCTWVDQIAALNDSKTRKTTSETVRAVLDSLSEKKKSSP
Text: as §1, §2

LOX 3-4m.1225 = target: T3, LOX 3-4m.1225 (artificial (I-CreI derived))
T3 chain: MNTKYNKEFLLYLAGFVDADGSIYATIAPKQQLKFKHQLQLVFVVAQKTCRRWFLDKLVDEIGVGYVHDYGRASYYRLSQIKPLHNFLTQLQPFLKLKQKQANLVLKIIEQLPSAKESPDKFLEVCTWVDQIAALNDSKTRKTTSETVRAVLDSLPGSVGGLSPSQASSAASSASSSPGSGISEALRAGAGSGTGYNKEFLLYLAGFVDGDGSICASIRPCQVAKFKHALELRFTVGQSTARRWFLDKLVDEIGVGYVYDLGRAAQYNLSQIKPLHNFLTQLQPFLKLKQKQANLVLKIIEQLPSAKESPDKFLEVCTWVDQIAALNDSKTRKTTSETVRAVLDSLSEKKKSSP
Text: as §1, §2

LOX 3-4m.1153 = target: T4, LOX 3-4m.1153 (artificial (I-CreI derived))
T4 chain: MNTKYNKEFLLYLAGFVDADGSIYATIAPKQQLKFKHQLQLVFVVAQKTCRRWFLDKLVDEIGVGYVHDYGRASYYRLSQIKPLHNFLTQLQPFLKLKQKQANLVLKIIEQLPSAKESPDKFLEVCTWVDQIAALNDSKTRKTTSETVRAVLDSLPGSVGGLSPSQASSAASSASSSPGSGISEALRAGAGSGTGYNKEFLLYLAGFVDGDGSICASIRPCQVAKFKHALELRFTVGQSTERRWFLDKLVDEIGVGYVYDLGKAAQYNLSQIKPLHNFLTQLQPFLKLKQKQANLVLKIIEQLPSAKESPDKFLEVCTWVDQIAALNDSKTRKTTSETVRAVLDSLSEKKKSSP
Text: as §1, §2

LOX 3-4m.1123 = target: T5, LOX 3-4m.1123 (artificial (I-CreI derived))
T5 chain: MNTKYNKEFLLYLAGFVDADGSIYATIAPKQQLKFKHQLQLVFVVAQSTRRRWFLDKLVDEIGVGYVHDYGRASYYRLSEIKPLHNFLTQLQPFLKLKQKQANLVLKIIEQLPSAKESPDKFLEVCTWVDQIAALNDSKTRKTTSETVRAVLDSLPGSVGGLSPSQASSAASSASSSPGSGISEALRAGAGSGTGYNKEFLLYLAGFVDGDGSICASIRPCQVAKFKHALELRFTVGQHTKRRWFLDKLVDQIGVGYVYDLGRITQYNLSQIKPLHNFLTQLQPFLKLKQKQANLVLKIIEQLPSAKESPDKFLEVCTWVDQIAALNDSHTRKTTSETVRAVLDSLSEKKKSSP
Text: as §1
as §2, with “ACGC” for “ACGT”, “90)” for “136)”

LOX 3-4m.1125 = target: T6, LOX 3-4m.1125 (artificial (I-CreI derived))
T6 chain: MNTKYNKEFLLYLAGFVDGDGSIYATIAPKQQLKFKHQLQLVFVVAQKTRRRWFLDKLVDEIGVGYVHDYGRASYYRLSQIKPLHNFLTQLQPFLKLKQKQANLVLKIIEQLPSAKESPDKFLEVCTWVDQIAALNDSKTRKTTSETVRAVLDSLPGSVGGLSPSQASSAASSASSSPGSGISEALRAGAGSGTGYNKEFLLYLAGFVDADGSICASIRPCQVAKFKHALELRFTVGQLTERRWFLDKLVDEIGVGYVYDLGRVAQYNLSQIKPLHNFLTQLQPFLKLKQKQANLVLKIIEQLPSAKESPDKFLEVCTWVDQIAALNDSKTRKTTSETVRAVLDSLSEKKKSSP
Text: as §1
as §2, with “ACGC” for “ACGT”, “90)” for “136)”

LOX 3-4m.1069 = target: T7, LOX 3-4m.1069 (artificial (I-CreI derived))
T7 chain: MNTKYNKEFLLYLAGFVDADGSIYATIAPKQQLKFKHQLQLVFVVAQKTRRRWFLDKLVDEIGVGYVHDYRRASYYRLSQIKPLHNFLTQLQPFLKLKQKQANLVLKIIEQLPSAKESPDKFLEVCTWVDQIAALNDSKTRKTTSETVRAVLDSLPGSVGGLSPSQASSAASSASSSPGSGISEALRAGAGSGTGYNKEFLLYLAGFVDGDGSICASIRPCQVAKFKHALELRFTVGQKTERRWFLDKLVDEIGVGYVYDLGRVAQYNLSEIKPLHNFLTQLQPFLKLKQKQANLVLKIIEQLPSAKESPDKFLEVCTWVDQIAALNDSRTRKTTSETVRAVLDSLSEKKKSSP
Text: as §1
as §2, with “ACGC” for “ACGT”, “90)” for “136)”

LOX 3-4m.1052 = target: T8, LOX 3-4m.1052 (artificial (I-CreI derived))
T8 chain: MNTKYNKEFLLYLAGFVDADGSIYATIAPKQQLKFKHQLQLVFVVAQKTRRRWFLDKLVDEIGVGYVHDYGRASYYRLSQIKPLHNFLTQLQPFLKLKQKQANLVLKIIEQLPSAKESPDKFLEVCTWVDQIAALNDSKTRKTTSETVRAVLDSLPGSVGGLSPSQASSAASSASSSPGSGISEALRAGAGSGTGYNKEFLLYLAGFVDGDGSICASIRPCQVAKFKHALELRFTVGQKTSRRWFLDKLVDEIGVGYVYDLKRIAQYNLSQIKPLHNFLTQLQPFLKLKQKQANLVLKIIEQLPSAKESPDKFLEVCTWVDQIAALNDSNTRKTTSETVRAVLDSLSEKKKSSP
Text: as §1
as §2, with “ACGC” for “ACGT”, “90)” for “136)”

LOX 3-4m.1941 = target: T9, LOX 3-4m.1941 (artificial (I-CreI derived))
T9 chain: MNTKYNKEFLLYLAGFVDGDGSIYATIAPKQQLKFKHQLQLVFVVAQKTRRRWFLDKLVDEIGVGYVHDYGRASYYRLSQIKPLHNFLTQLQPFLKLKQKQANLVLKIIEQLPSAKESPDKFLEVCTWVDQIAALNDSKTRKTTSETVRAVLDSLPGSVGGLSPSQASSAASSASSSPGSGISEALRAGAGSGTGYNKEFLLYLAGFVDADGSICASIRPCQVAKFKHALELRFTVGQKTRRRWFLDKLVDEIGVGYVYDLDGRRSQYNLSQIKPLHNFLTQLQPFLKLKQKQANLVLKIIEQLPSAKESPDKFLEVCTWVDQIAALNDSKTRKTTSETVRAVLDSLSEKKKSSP
Text: as §1
(§3) Novel engineered meganucleases derived from the LOX 3-4x.109 meganuclease were prepared by making amino acid substitutions at one or more positions in the first subunit and one or more positions in the second subunit. In addition, an R residue was inserted following position 264, which corresponds to position 73 of wild-type I-CreI.

LOX 3-4m.1947 = target: T10, LOX 3-4m.1947 (artificial (I-CreI derived))
T10 chain: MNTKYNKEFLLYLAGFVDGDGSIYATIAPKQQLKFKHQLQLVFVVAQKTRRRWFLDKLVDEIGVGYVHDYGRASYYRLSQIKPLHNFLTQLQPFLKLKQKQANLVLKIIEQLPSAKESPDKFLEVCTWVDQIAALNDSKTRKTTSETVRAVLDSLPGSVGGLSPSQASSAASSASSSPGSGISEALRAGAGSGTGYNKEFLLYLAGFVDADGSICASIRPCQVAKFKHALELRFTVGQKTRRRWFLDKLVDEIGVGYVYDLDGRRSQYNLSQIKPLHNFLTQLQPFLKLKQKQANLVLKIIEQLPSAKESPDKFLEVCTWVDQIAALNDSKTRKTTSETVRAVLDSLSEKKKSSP
Text: as §1, §3

LOX 3-4m.1946 = target: T11, LOX 3-4m.1946 (artificial (I-CreI derived))
T11 chain: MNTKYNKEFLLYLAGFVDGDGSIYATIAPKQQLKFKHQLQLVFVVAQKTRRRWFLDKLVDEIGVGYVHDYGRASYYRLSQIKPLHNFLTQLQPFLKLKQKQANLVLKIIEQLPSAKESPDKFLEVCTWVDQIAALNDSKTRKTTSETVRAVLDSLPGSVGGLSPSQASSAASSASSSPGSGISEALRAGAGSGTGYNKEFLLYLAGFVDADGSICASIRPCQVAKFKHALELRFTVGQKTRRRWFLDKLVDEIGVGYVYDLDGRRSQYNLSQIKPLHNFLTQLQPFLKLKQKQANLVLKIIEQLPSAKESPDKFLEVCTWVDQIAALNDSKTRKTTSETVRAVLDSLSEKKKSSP
Text: as §1, §3

LOX 3-4m.1876 = target: T12, LOX 3-4m.1876 (artificial (I-CreI derived))
T12 chain: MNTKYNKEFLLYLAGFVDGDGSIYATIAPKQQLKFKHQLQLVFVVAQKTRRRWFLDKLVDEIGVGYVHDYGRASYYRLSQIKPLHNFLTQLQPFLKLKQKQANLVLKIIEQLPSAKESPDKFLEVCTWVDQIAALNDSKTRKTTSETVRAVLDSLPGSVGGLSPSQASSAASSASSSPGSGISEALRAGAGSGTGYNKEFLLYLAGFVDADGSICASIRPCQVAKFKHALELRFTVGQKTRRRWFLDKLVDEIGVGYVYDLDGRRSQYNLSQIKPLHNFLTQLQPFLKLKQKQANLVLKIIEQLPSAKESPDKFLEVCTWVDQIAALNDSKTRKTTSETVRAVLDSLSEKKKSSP
Text: as §1, §3

B1: LOX 3-4 ACGT (dsDNA)
DNA 1: GTATAGCATACGTTATACGAAG
DNA 2: CTTCGTATAACGTATGCTATAC
- activity (LOX 3-4m.1158): 9.19 % GFP
- activity (LOX 3-4m.1206): 9.84 % GFP
- activity (LOX 3-4m.1225): 10.6 % GFP
- activity (LOX 3-4m.1153): 10.3 % GFP

B2: LOX 3-4 ACGC (dsDNA)
DNA 1: GTATAGCATACGCTATACGAAG
DNA 2: CTTCGTATAGCGTATGCTATAC
- activity (LOX 3-4m.1123): 9.56 % GFP
- activity (LOX 3-4m.1125): 10.4 % GFP
- activity (LOX 3-4m.1069): 10.3 % GFP
- activity (LOX 3-4m.1052): 9.34 % GFP

B3: LOX 3-4 ACGG (dsDNA)
DNA 1: GTATAGCATACGGTATACGAAG
DNA 2: CTTCGTATACCGTATGCTATAC
- activity (LOX 3-4m.1941): 10.1 % GFP
- activity (LOX 3-4m.1947): 10.5 % GFP
- activity (LOX 3-4m.1946): 10.8 % GFP
- activity (LOX 3-4m.1876): 9.6 % GFP

Reference: patent US20220195407, “OPTIMIZATION OF ENGINEERED MEGANUCLEASES FOR RECOGNITION SEQUENCES” (Precision BioSciences, Inc., published 2022)
